In the domain aggregation screens of Martell et al. (2025):

Assay: soluble fraction after stress (log2 fold change); higher = more stays soluble; pooled small domains, quantitative proteomics
Conditions: stress: pH 4
Summary of the method: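 High-throughput quantitative proteomics was run on pooled custom libraries of small protein domains following pH 4 stress. Fold changes are on a log2 scale; higher values mean more of a domain remained soluble. The fold change in soluble amount is taken as a measure of aggregation propensity.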

First: HMNGVPDMSPVPEGARNSTLHAWAFGRLKNHPDNETGIREDLFRRGHASGLQDAELDQIWKSIKRTL
Second: HMNGVSNETLIQKSALYEELNQPDLALKMINTALKKDSVNIEILHRLVTLLMSQEKNEEAILYNQKIIDH
The “soluble fraction (log2)” value of the first is higher: at least 0.43 for the first, -0.0993 for the second.

Compared with “HMNHSITLTERKNLLITGVKKIENFDKEEFLIETTMGFLVVKGDGLELIKLDTISGNVSIKGIVNGFTYID”, “HMNIAAVIGQTGVLQDDLKAGEQGTVKADNKLWTAVLAEGEEAVKKEERVDIVAVEGVKLIVRRNI” is lower in “soluble fraction (log2)” value: 0.0772 for the first, -1.14 for the second.

First: HMNIDEIFLTKNEIYFSFEYQKKSQLDRYSKIISLDHRIDKNTAYAYANKKQFLNFINLNIDYKIIDNSF
Second: HMNIDEIIGKKAVVIESIDNLQGTGKVRYQGMEWTARAEEENDRIEKDAEVEIIAVKGVKLIVKMK
The “soluble fraction (log2)” value of the first is lower: -1 for the first, -0.19 for the second.

Compared with “HMNIDNTWQPSEDVVEILTRSGINEDFINELIPEFIVYWTERPGTLVSYNSKFIEHVRLKWAQHSAEI”, “HMNIDVAAEKQQLGPNADQIVKGTVTWMQGLVAKGIWSETDFEEGKIFTATADGINAINKIRRYYGEQT” is higher in “soluble fraction (log2)” value: -1.04 for the first, -0.439 for the second.

First: HMNIEDFKDKVKELKQYTYQELVEDVKLKTDRADVILPASKIYLEAMQQAKVDSIIVPKVGLAEGVAR
Second: HMNIEEQVVAEVLVKDFMKQLTPRDIHILELRKNGYTYQEIAGQLGYHTHSAVKKRVDRLAEQWLAYTQGH
The “soluble fraction (log2)” value of the first is higher: 0.149 for the first, -0.739 for the second.

Going from “HMNIFAHQIGKLRTERHLSQTDVAKRLYVSRQAVSKWENGDAEPSLDNLIALAKLFNVSLDNLITGQ” to “HMNIGVEQIEQMERGALITLWQELIDKPLPRHMSIVFLRQVLAFEVQSKQNGGLPRGFITLLNKQAD”, the “soluble fraction (log2)” value falls from 0.138 to -0.868.

“HMNIKITKSKNSEHYSIIYNTKINGKRTSKIYENIGNFEKLKLRAGEQEPIEWLKNYVSELNKKQKEDT” and “HMNIKYDFPTNSPLEMMRNLFDSNSQIINDLKDGFAMANSLNEQGLANFFAERIDKHQFWSWQLSASL” are within 0.2 log units of each other in “soluble fraction (log2)” value: 0.22 for the first, 0.177 for the second.

Compared with “HMNILDPTVMKNILDKNHEEFIAIYESAPLGQKTIINSMVFDKRLNGENVDANILMYLQNKTNIDYINIEP”, “HMNILNYIIENENQEVRVDKFLSDTIEDMSRSSVASIIEDGGLLVNDKLQNKKYKLKIGDKVQFTVPDPV” is higher in “soluble fraction (log2)” value: -1.47 for the first, -0.121 for the second.

“HMNILVAISDTGEIWINKRRVDARAVQANIERLHAENPQGTVVIQADKQATTETLIKVMDASRAAGVFDVS” and “HMNINLDINTYTVKELEKLLKLEVPYSDNNVFEKKNLMVKMIQTSTIAETKKEELYIFLDNIYNRLTNNLE” are within 0.2 log units of each other in “soluble fraction (log2)” value: -0.759 for the first, -0.942 for the second.

Compared with “HMNISLGALVTITDQKGRSHTVTLESGKQFFTNHGSINHDEIIKAGEGGVVASSSGMLYTIFTP”, “HMNISRESLIGQILATLNKNPEEGFNYKQIAKRLNITDSPGRQMISDLLRELSKHGSLQEISHGKYKIKV” is higher in “soluble fraction (log2)” value: -0.551 for the first, 0.215 for the second.

Compared with “HMNITHEINVKSKSKIDFLENNKNLAQFFLTKNPNQFNYNLVFSDKSELNIIKEKIESHKDIEDIDIRYG”, “HMNIVINVDTPTFEQMKATYQAPGTLPAGASFHAKLKGVTVTGYTKSHKVMFQGALANQEAARWQ” is higher in “soluble fraction (log2)” value: -1.11 for the first, at least 0.43 for the second.

Compared with “HMNIYFNIEDAVANAVVENGKMSAAIYEKNVDTGEVAKLAEVSMPVMGGNINITKTLLTKALISQLP”, “HMNKAYLTVADMKKDKSLKNGDVVRTLGYYGYNDGDGAVYQIKDSHPEDYHIRLDNGLDAEQINY” is higher in “soluble fraction (log2)” value: -0.713 for the first, 0.174 for the second.

Compared with “HMNKEHINLDSSKFLSLLNKTKISMSNDETRHYLNGIYIHPTVSNKSSYLTGVATDSHRLSSSSIPVD”, “HMNKMIIELGEKLKALRTENHLRQDQVARLVNVEKSSISMYETGMRQPSYTTLVRLADVFNVTTDYLLGRK” is higher in “soluble fraction (log2)” value: -0.311 for the first, 0.307 for the second.

Compared with “HMNKPTSMYKLRLLLKHYHAGASKRWMADVLDISRSTLNVYLARIESLNLAFEEWEALSDLEVSRLLINP”, “HMNKVAQFYRELVSTLSERLRNGERDIDALVEQARVRISQSGELTQSEIENVIRAVRRDLEEFALSYEE” is lower in “soluble fraction (log2)” value: -0.852 for the first, -1.73 for the second.

Compared with “HMNLAISAYQQLKSDIIRGVYAPGEKLLMSRLKVRYGLGIGPMREALSQLVSEHLVTAASQRGYRVAGM”, “HMNLAPLLTEYVQINFRRASEMKTYLEQANLISERGFLLADDQTNILMVRETGASIEEIRRTLNRF” is lower in “soluble fraction (log2)” value: 0.129 for the first, -1.61 for the second.

“HMNLFKAPMPGLIRTIVVAEGQEVKKGDVILILEAMKMENALKSPADLVVKSIKVQQGQAVEKNQLLIEF” and “HMNLGNLLKIYRKNSLLTQQQVADALNINRTTYTYYETGKTEPSIDTLHKLIKIFGITYDDLL” are within 0.2 log units of each other in “soluble fraction (log2)” value: -0.14 for the first, -0.337 for the second.

“HMNLKDINLNVRHYKIIDFVREHGYASIETLTRQFGVSAQTVRRDIIYLDNQAVLKRHHGGVGTLPG” and “HMNLPTSGVDALTPAERRVARMAGDGQSNREIAQTLFVTRKTVEIHLTSVYRKLGIASRAELSARL” are within 0.2 log units of each other in “soluble fraction (log2)” value: -0.723 for the first, -0.59 for the second.

“HMNLQGIISQKAIVTQTIEPYETGVAKLNGEEWTAMSKDETRIEAGKLVEVVAIEGVKLIVKEVS” and “HMNLVELKHAEEFNTLIIQDIGGRMKPAHTLASELVRKVFHNDDFNGIDPRKVFLSIIENSKVWFNVPFI” are within 0.2 log units of each other in “soluble fraction (log2)” value: -0.295 for the first, -0.361 for the second.

Compared with “HMNLYENLATHVKNAIRQGVYQPGDRLPSVRRLSEQHRVSQNTAVSAYRLLESHGWLEARPQSGFFARHP”, “HMNLYERFPIHELWKETFNETLDEEEHITFITSEFKPENIVLGQGFIAAPSKKDAVDWLKVIRTVLIFYDS” is lower in “soluble fraction (log2)” value: 0.297 for the first, -1.61 for the second.

Going from “HMNMANFARIRLILELHDRGMSQDEISRSRHMSRSTITTVLRTARKKGITYAGIRKLDDAALQKLFFPDR” to “HMNMDLGHSISKLRTDANLTQEKFAQILNVSRQTVQKWEYGEALPDIHNIIKIAKFFNISLDALVLRS”, the “soluble fraction (log2)” value falls from 0.22 to -0.222.

First: HMNMIGDVIRNLRTVSSMTQTELGQRMGVIKQTISNWEKNISTPSIDAIVKLSSIFNVPTDYLL
Second: HMNMMESNLFAVYDNDDIVKTLRQGAMEIDSLIRLMGKSSAEVLEKLTTMELQGIITRSGNIIALNN
The “soluble fraction (log2)” value of the first is higher: -0.178 for the first, -1.38 for the second.

First: HMNMNDIKFGKYLKRVRKKYNFSKEYVANILKVKESLVSDWESGRLTLNDEYMEKLSLFYGVNLYKK
Second: HMNMPDVTVEWVKEQQAKFGLTDSDLAKSVNIDNANLARIFNQRGLTKIHKALFYYFFRAYGLQ
The “soluble fraction (log2)” value of the first is higher: -0.123 for the first, -1.1 for the second.

Compared with “HMNMRVLSEQPNKKSYQDGNLRLKVFGASFKKSDILNEALNQARVEETGLQIPKLLEVKQIDGQWTIVTE”, “HMNMVSGHLQVKKGYYYAVLSFYDSKNKRHVKYISTGLPEKGNKRKAEAELVKIRNAFEPPAE” is higher in “soluble fraction (log2)” value: -0.393 for the first, -0.0995 for the second.

First: HMNNESEGAIMLRQYSSLSAYLTKYNIDVNSKKAQQYASSLKLAQEKGSAEGQKYLSSISSELDD
Second: HMNNIIEQIKADIKKLEEKLDKSSENALNKLEKDYSSLSTESKKKLDDAGYGARIKALRVKFAALSTQ
The “soluble fraction (log2)” value of the first is lower: 0.00542 for the first, at least 0.43 for the second.

Going from “HMNNISKKIKELREQNNITQNKLANDLFIKQQTVAQWENGSRALKADSIISLAKYFNVSTDYLLGLTEN” to “HMNNLKTKELSKIGYTNDKARSLVISIIPKHFKYHSKSEIIELLTNIKNKPEDYVSDEILGKIAETFMEKI”, the “soluble fraction (log2)” value falls from -0.634 to -1.19.

Going from “HMNNLSEELNVTFPRTRDQLLNILHYVQHKYGYISKVSMQEIGNHIKMPVSEIYGTVTSYSEFKI” to “HMNNLTEEAINHLVLEVKNVLLTDALFLGKATDSQLMLRIKETIDQRNGQYNIGMNDRERIARRVFARLR”, the “soluble fraction (log2)” value rises from -0.965 to at least 0.43.

Compared with “HMNNLVGKTKVLKSNTNIYAYKTMSGKFYSYLPNTRVRVLQDLGYINYIEVIATKRRGYVYENVY”, “HMNNNIFVYPNPSINYINIDSDEEIWKLEIIQMSGEKINILPFSKRIDISFLSKGLYILNFNNYYIKFIK” is lower in “soluble fraction (log2)” value: -0.165 for the first, -0.937 for the second.

For “HMNNQIFGLKFRQLRKQQHITLAKAAAGITSRQSLGNWETGKGELAFEKVLLLLKKINVQPIDFLESSIS”, the “soluble fraction (log2)” value was 0.264.
